Measured values reported in US20180071366A1.
Numbered stars: 1 amine (or outer) side, 2 acyl side, 3 side chain; on linkers, the order of the positions; unused ones are H or OH. Bridge positions count the residues as written; N and C are the ends. Square brackets hold non-standard residues; d marks the D form. * marks the point of attachment. C20 diacid = O=C(O)CCCCCCCCCCCCCCCCCCC(=O)*; γGlu = O=C(O)[C@H](CCC(=O)[*:2])N[*:1]; Hyp = O=C(O)[C@@H]1C[C@@H](O)CN1; NMeI = CC[C@H](C)[C@H](NC)C(=O)O; Orn = NCCC[C@H](N)C(=O)O; Dab = NCC[C@H](N)C(=O)O; Sar = CNCC(=O)O

What was measured:
[1] = target: recombinant human amylin 3 receptor (hAMYR3) (human), P30988; test: cell-based or functional assay
Sequence of recombinant human amylin 3 receptor (hAMYR3) (human), P30988 (P30988 25-474, chain 1 of 2): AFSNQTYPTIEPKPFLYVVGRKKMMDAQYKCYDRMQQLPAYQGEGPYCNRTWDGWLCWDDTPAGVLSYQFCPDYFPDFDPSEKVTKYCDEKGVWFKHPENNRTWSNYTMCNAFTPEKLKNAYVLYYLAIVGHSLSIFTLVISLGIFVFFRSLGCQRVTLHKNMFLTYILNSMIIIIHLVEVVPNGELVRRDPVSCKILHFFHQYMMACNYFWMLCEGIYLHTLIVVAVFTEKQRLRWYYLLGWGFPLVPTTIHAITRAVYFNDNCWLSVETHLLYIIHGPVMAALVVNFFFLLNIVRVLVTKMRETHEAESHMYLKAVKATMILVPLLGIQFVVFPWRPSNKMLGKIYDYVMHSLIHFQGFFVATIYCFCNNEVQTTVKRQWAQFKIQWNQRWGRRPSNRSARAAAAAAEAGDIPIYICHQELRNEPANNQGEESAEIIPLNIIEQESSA
Sequence of recombinant human amylin 3 receptor (hAMYR3) (human), P30988 (O60896 24-148, chain 2 of 2, further chain): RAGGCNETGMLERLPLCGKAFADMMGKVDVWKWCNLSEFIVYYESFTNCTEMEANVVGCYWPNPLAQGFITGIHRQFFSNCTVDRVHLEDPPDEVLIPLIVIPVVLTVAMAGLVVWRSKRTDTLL

[2] = target: recombinant human calcitonin receptor (hCT-R) (human), P30988; test: cell-based or functional assay
Sequence of recombinant human calcitonin receptor (hCT-R) (human), P30988 (P30988 25-474): as the sequence (P30988 25-474, chain 1 of 2) above

Binder | hAMYR3 EC50 [nM] (cAMP formation, 1321N1 cells expressing hAMYR3) [1] | hCT-R EC50 [nM] (cAMP formation, 1321N1 cells expressing hCT-R) [2]
{C20 diacid-γGlu}-RDGTATKATQRLAHFLQRSSF[Sar]A[NMeI]PSSTEVGSNT[Hyp]-NH2 (lactam 2-7; SMILES CC[C@H](C)[C@@H](C(=O)N1CCC[C@H]1C(=O)N[C@@H](CO)C(=O)N[C@@H](CO)C(=O)N[C@H](C(=O)N[C@@H](CCC(=O)O)C(=O)N[C@H](C(=O)NCC(=O)N[C@@H](CO)C(=O)N[C@@H](CC(N)=O)C(=O)N[C@H](C(=O)N1C[C@H](O)C[C@H]1C(N)=O)[C@@H](C)O)C(C)C)[C@@H](C)O)N(C)C(=O)[C@H](C)NC(=O)CN(C)C(=O)[C@H](Cc1ccccc1)NC(=O)[C@H](CO)NC(=O)[C@H](CO)NC(=O)[C@H](CCCNC(=N)N)NC(=O)[C@H](CCC(N)=O)NC(=O)[C@H](CC(C)C)NC(=O)[C@H](Cc1ccccc1)NC(=O)[C@H](Cc1c[nH]cn1)NC(=O)[C@H](C)NC(=O)[C@H](CC(C)C)NC(=O)[C@H](CCCNC(=N)N)NC(=O)[C@H](CCC(N)=O)NC(=O)[C@@H](NC(=O)[C@H](C)NC(=O)[C@@H]1CCCCNC(=O)C[C@H](NC(=O)[C@H](CCCNC(=N)N)NC(=O)CC[C@H](NC(=O)CCCCCCCCCCCCCCCCCCC(=O)O)C(=O)O)C(=O)NCC(=O)N[C@@H]([C@@H](C)O)C(=O)N[C@@H](C)C(=O)N[C@@H]([C@@H](C)O)C(=O)N1)[C@@H](C)O) [Compound 15] | 0.017 nM | 0.056 nM
{C20 diacid-γGlu}-RDGEATKATERLAHFLQRSSF[Sar]A[NMeI]LSSTEVGSNT[Hyp]-NH2 (lactam 2-7; SMILES CC[C@H](C)[C@@H](C(=O)N[C@@H](CC(C)C)C(=O)N[C@@H](CO)C(=O)N[C@@H](CO)C(=O)N[C@H](C(=O)N[C@@H](CCC(=O)O)C(=O)N[C@H](C(=O)NCC(=O)N[C@@H](CO)C(=O)N[C@@H](CC(N)=O)C(=O)N[C@H](C(=O)N1C[C@H](O)C[C@H]1C(N)=O)[C@@H](C)O)C(C)C)[C@@H](C)O)N(C)C(=O)[C@H](C)NC(=O)CN(C)C(=O)[C@H](Cc1ccccc1)NC(=O)[C@H](CO)NC(=O)[C@H](CO)NC(=O)[C@H](CCCNC(=N)N)NC(=O)[C@H](CCC(N)=O)NC(=O)[C@H](CC(C)C)NC(=O)[C@H](Cc1ccccc1)NC(=O)[C@H](Cc1c[nH]cn1)NC(=O)[C@H](C)NC(=O)[C@H](CC(C)C)NC(=O)[C@H](CCCNC(=N)N)NC(=O)[C@H](CCC(=O)O)NC(=O)[C@@H](NC(=O)[C@H](C)NC(=O)[C@@H]1CCCCNC(=O)C[C@H](NC(=O)[C@H](CCCNC(=N)N)NC(=O)CC[C@H](NC(=O)CCCCCCCCCCCCCCCCCCC(=O)O)C(=O)O)C(=O)NCC(=O)N[C@@H](CCC(=O)O)C(=O)N[C@@H](C)C(=O)N[C@@H]([C@@H](C)O)C(=O)N1)[C@@H](C)O) [Compound 12] | 0.999 nM | 0.893 nM
{C20 diacid-γGlu}-RDGTAT[Orn]ATERLARFLQRSSF[Sar]A[NMeI]LSSTEVGSNT[Hyp]-NH2 (lactam 2-7; SMILES CC[C@H](C)[C@@H](C(=O)N[C@@H](CC(C)C)C(=O)N[C@@H](CO)C(=O)N[C@@H](CO)C(=O)N[C@H](C(=O)N[C@@H](CCC(=O)O)C(=O)N[C@H](C(=O)NCC(=O)N[C@@H](CO)C(=O)N[C@@H](CC(N)=O)C(=O)N[C@H](C(=O)N1C[C@H](O)C[C@H]1C(N)=O)[C@@H](C)O)C(C)C)[C@@H](C)O)N(C)C(=O)[C@H](C)NC(=O)CN(C)C(=O)[C@H](Cc1ccccc1)NC(=O)[C@H](CO)NC(=O)[C@H](CO)NC(=O)[C@H](CCCNC(=N)N)NC(=O)[C@H](CCC(N)=O)NC(=O)[C@H](CC(C)C)NC(=O)[C@H](Cc1ccccc1)NC(=O)[C@H](CCCNC(=N)N)NC(=O)[C@H](C)NC(=O)[C@H](CC(C)C)NC(=O)[C@H](CCCNC(=N)N)NC(=O)[C@H](CCC(=O)O)NC(=O)[C@@H](NC(=O)[C@H](C)NC(=O)[C@@H]1CCCNC(=O)C[C@H](NC(=O)[C@H](CCCNC(=N)N)NC(=O)CC[C@H](NC(=O)CCCCCCCCCCCCCCCCCCC(=O)O)C(=O)O)C(=O)NCC(=O)N[C@@H]([C@@H](C)O)C(=O)N[C@@H](C)C(=O)N[C@@H]([C@@H](C)O)C(=O)N1)[C@@H](C)O) [Compound 10] | 0.068 nM | 0.345 nM
{C20 diacid-γGlu}-EDGTATKATERLAHFLQRSSF[Sar]A[NMeI]LSSTEVGSNT[Hyp]-NH2 (lactam 2-7; SMILES CC[C@H](C)[C@@H](C(=O)N[C@@H](CC(C)C)C(=O)N[C@@H](CO)C(=O)N[C@@H](CO)C(=O)N[C@H](C(=O)N[C@@H](CCC(=O)O)C(=O)N[C@H](C(=O)NCC(=O)N[C@@H](CO)C(=O)N[C@@H](CC(N)=O)C(=O)N[C@H](C(=O)N1C[C@H](O)C[C@H]1C(N)=O)[C@@H](C)O)C(C)C)[C@@H](C)O)N(C)C(=O)[C@H](C)NC(=O)CN(C)C(=O)[C@H](Cc1ccccc1)NC(=O)[C@H](CO)NC(=O)[C@H](CO)NC(=O)[C@H](CCCNC(=N)N)NC(=O)[C@H](CCC(N)=O)NC(=O)[C@H](CC(C)C)NC(=O)[C@H](Cc1ccccc1)NC(=O)[C@H](Cc1c[nH]cn1)NC(=O)[C@H](C)NC(=O)[C@H](CC(C)C)NC(=O)[C@H](CCCNC(=N)N)NC(=O)[C@H](CCC(=O)O)NC(=O)[C@@H](NC(=O)[C@H](C)NC(=O)[C@@H]1CCCCNC(=O)C[C@H](NC(=O)[C@H](CCC(=O)O)NC(=O)CC[C@H](NC(=O)CCCCCCCCCCCCCCCCCCC(=O)O)C(=O)O)C(=O)NCC(=O)N[C@@H]([C@@H](C)O)C(=O)N[C@@H](C)C(=O)N[C@@H]([C@@H](C)O)C(=O)N1)[C@@H](C)O) [Compound 11] | 0.024 nM | 0.068 nM
{C20 diacid-γGlu}-RDGTLTKATERLAHFLQRSSF[Sar]A[NMeI]LSSTEVGSNT[Hyp]-NH2 (lactam 2-7; SMILES CC[C@H](C)[C@@H](C(=O)N[C@@H](CC(C)C)C(=O)N[C@@H](CO)C(=O)N[C@@H](CO)C(=O)N[C@H](C(=O)N[C@@H](CCC(=O)O)C(=O)N[C@H](C(=O)NCC(=O)N[C@@H](CO)C(=O)N[C@@H](CC(N)=O)C(=O)N[C@H](C(=O)N1C[C@H](O)C[C@H]1C(N)=O)[C@@H](C)O)C(C)C)[C@@H](C)O)N(C)C(=O)[C@H](C)NC(=O)CN(C)C(=O)[C@H](Cc1ccccc1)NC(=O)[C@H](CO)NC(=O)[C@H](CO)NC(=O)[C@H](CCCNC(=N)N)NC(=O)[C@H](CCC(N)=O)NC(=O)[C@H](CC(C)C)NC(=O)[C@H](Cc1ccccc1)NC(=O)[C@H](Cc1c[nH]cn1)NC(=O)[C@H](C)NC(=O)[C@H](CC(C)C)NC(=O)[C@H](CCCNC(=N)N)NC(=O)[C@H](CCC(=O)O)NC(=O)[C@@H](NC(=O)[C@H](C)NC(=O)[C@@H]1CCCCNC(=O)C[C@H](NC(=O)[C@H](CCCNC(=N)N)NC(=O)CC[C@H](NC(=O)CCCCCCCCCCCCCCCCCCC(=O)O)C(=O)O)C(=O)NCC(=O)N[C@@H]([C@@H](C)O)C(=O)N[C@@H](CC(C)C)C(=O)N[C@@H]([C@@H](C)O)C(=O)N1)[C@@H](C)O) [Compound 13] | 0.456 nM | 1.41 nM
{C20 diacid-γGlu}-RDGTAT[Dab]ATERLAHFLQRSSF[Sar]A[NMeI]LSSTEVGSNT[Hyp]-NH2 (lactam 2-7; SMILES CC[C@H](C)[C@@H](C(=O)N[C@@H](CC(C)C)C(=O)N[C@@H](CO)C(=O)N[C@@H](CO)C(=O)N[C@H](C(=O)N[C@@H](CCC(=O)O)C(=O)N[C@H](C(=O)NCC(=O)N[C@@H](CO)C(=O)N[C@@H](CC(N)=O)C(=O)N[C@H](C(=O)N1C[C@H](O)C[C@H]1C(N)=O)[C@@H](C)O)C(C)C)[C@@H](C)O)N(C)C(=O)[C@H](C)NC(=O)CN(C)C(=O)[C@H](Cc1ccccc1)NC(=O)[C@H](CO)NC(=O)[C@H](CO)NC(=O)[C@H](CCCNC(=N)N)NC(=O)[C@H](CCC(N)=O)NC(=O)[C@H](CC(C)C)NC(=O)[C@H](Cc1ccccc1)NC(=O)[C@H](Cc1c[nH]cn1)NC(=O)[C@H](C)NC(=O)[C@H](CC(C)C)NC(=O)[C@H](CCCNC(=N)N)NC(=O)[C@H](CCC(=O)O)NC(=O)[C@@H](NC(=O)[C@H](C)NC(=O)[C@@H]1CCNC(=O)C[C@H](NC(=O)[C@H](CCCNC(=N)N)NC(=O)CC[C@H](NC(=O)CCCCCCCCCCCCCCCCCCC(=O)O)C(=O)O)C(=O)NCC(=O)N[C@@H]([C@@H](C)O)C(=O)N[C@@H](C)C(=O)N[C@@H]([C@@H](C)O)C(=O)N1)[C@@H](C)O) [Compound 2] | 0.032 nM | 0.105 nM
{C20 diacid-γGlu}-RDGTASKATERLAHFLQRSSF[Sar]A[NMeI]LSSTEVGSNT[Hyp]-NH2 (lactam 2-7; SMILES CC[C@H](C)[C@@H](C(=O)N[C@@H](CC(C)C)C(=O)N[C@@H](CO)C(=O)N[C@@H](CO)C(=O)N[C@H](C(=O)N[C@@H](CCC(=O)O)C(=O)N[C@H](C(=O)NCC(=O)N[C@@H](CO)C(=O)N[C@@H](CC(N)=O)C(=O)N[C@H](C(=O)N1C[C@H](O)C[C@H]1C(N)=O)[C@@H](C)O)C(C)C)[C@@H](C)O)N(C)C(=O)[C@H](C)NC(=O)CN(C)C(=O)[C@H](Cc1ccccc1)NC(=O)[C@H](CO)NC(=O)[C@H](CO)NC(=O)[C@H](CCCNC(=N)N)NC(=O)[C@H](CCC(N)=O)NC(=O)[C@H](CC(C)C)NC(=O)[C@H](Cc1ccccc1)NC(=O)[C@H](Cc1c[nH]cn1)NC(=O)[C@H](C)NC(=O)[C@H](CC(C)C)NC(=O)[C@H](CCCNC(=N)N)NC(=O)[C@H](CCC(=O)O)NC(=O)[C@@H](NC(=O)[C@H](C)NC(=O)[C@@H]1CCCCNC(=O)C[C@H](NC(=O)[C@H](CCCNC(=N)N)NC(=O)CC[C@H](NC(=O)CCCCCCCCCCCCCCCCCCC(=O)O)C(=O)O)C(=O)NCC(=O)N[C@@H]([C@@H](C)O)C(=O)N[C@@H](C)C(=O)N[C@@H](CO)C(=O)N1)[C@@H](C)O) [Compound 14] | 0.108 nM | 0.386 nM
